The record followed here is patent US20240368664A1, “LIVE YEAST BIOSENSORS AND METHODS OF USE THEREOF” (priority 2021, published 2024).

Experiment [1] deals with T1, Schizosaccharomyces japonicus pheromone GPCR SjSte2 (Schizosaccharomyces japonicus).
T1 sequence: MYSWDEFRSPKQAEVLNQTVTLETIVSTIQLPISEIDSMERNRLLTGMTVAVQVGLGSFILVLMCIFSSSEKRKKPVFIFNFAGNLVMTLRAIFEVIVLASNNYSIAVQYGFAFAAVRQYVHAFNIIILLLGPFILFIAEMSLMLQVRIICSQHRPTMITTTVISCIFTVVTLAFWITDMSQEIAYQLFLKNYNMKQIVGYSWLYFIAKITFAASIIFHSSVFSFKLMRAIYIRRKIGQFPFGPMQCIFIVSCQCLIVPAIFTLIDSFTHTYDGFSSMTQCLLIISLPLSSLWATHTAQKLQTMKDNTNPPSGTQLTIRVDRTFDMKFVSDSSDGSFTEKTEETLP
The experiment in a line: cell-based or functional assay.

For experiment [2], the target named is T2, Scheffersomyces stipitis pheromone GPCR SsSte2 (Scheffersomyces stipitis).
T2 sequence: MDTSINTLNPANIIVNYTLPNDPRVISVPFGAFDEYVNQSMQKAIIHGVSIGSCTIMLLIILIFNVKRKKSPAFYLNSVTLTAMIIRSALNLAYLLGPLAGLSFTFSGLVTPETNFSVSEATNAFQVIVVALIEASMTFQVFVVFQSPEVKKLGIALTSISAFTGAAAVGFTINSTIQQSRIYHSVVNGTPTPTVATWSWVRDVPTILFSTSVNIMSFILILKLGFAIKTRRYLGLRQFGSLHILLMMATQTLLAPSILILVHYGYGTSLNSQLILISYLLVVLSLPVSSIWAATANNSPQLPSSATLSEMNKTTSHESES
As to the kind of experiment: cell-based or functional assay.

Consider S. japonicus pheromone peptide (SjPep), for which the apparent EC50, ymTurquoise2, strain co-expressing SjSxa2 in experiment [1] came to 100000 nM.
In experiment [2], “Scheffersomyces stipitis cognate peptide (SsPep)” gave an EC50, mCherry, yMJ194 of 12 nM; an EC50, mCherry, yTC453 of 7 nM; a maximal activation, mCherry, yMJ194 of 320 A.U; a maximal activation, mCherry, yTC453 of 5300 A.U.
